Measured values: article PMC2921712

How the values were obtained:
microtubules = assay: co-sedimentation
[1] = biological target: Oregon Green 488-labeled GMPCPP microtubules; assay: single-molecule TIRF microscopy
[2] = biological target: Xenopus CENP-E^1-473 tagged with TagRFP-T (CENP-E^1-473-RFP) (Xenopus laevis); assay: single-molecule TIRF microscopy with photobleaching steps

Chain of microtubules (P02550 whole entry, chain 1 of 2): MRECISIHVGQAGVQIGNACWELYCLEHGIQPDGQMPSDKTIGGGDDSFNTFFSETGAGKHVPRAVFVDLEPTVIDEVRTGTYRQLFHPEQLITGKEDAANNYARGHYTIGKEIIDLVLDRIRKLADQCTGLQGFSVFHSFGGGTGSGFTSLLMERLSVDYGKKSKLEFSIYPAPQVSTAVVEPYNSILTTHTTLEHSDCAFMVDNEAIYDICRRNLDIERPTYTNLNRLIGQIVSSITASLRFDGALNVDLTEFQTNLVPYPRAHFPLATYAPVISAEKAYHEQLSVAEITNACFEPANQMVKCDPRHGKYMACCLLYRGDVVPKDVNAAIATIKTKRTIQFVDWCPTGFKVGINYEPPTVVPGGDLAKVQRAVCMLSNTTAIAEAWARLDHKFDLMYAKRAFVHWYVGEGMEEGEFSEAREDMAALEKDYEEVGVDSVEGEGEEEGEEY
Chain of microtubules (P02554 whole entry, chain 2 of 2, further chain): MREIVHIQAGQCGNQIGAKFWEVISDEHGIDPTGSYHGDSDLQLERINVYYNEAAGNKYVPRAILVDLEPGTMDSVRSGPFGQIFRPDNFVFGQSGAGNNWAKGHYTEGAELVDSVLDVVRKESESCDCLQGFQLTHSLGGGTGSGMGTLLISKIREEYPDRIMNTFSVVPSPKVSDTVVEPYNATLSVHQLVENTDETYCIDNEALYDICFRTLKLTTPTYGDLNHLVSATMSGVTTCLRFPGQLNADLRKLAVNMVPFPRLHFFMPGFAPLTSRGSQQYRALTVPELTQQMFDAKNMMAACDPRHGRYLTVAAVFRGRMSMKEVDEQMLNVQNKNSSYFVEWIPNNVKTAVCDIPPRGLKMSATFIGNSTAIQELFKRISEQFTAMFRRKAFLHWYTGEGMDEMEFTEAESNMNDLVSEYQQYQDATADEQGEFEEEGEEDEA
Chain of Oregon Green 488-labeled GMPCPP microtubules (P02550 whole entry, chain 1 of 2): as the sequence (P02550 whole entry, chain 1 of 2) above
Chain of Oregon Green 488-labeled GMPCPP microtubules (P02554 whole entry, chain 2 of 2, further chain): as the sequence (P02554 whole entry, chain 2 of 2, further chain) above

| Kd (microtubules) | mean duration of binding (t) [1] | time bound at the microtubule end [1] | stoichiometry N [2] | Substance |
| --- | --- | --- | --- | --- |
| 3400 nM | – | – | – | T424A Xenopus CENP-E^1-473 incubated with Aurora A (domain or fragment) |
| 2000 nM | – | – | – | Xenopus CENP-E motor fragment CENP-E^1-473 (domain or fragment) |
| 3000 nM | – | – | – | Xenopus CENP-E^1-473 phosphorylated by Aurora A (domain or fragment) |
| – | 17 s | 5.8 s | 2 | Xenopus CENP-E^1-473 tagged with TagRFP-T (CENP-E^1-473-RFP) (domain or fragment) |
| – | 12 s | – | – | Xenopus CENP-E^1-473-RFP phosphorylated by Aurora A (domain or fragment) |
